Experimental data from the supplement of paper PMC9170038.

Tested on: MS2 coat protein
Assay: apparent KD of MS2 coat protein; designed switch direction (-1 OFF switch, 1 ON switch): -1; higher = weaker reporter binding
Summary of the method: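 The buffer was Tris-HCl pH 7.5 with KCl, MgCl2, BSA, DTT, tRNA and Tween-20. In it, SNAP-549-labelled MS2 coat protein was titrated in doubling steps from 0.7 or 1.5 nM to 3 µM over chip-bound RNA switches transcribed by stalled E. coli RNA polymerase on Illumina chips. Apparent KD is the per-design median over clusters of curve fits to normalised fluorescence.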

[1] = input ligand: microRNA oligo, concentration not stated
[2] = Eterna round: R95, input ligand: FMN 200 uM
[3] = Eterna round: R95, input ligand: microRNA oligo, concentration not stated
[4] = Eterna round: R95, input ligand: none

Row | Sequence | apparent KD of MS2 coat protein (input ligand: FMN 200 uM) [nM] | apparent KD of MS2 coat protein [1] [nM] | apparent KD of MS2 coat protein (input ligand: none) [nM] | apparent KD of MS2 coat protein [2] [nM] | apparent KD of MS2 coat protein [3] [nM] | apparent KD of MS2 coat protein [4] [nM]
1 | ACAUGAGGAUCACCCAUGUAAACAUAAUGGCUGAUGUAGAGUCAGGAUAUGCGUGGCUAACAAUCGCAGAAGGGACAAGACUGG [Deportation 30 - Jieux - Exclusion NG 3] (Eterna round: R96, puzzle: Exclusion NG 3) | 22.2 | 23.1 | 25 |  |  | 
2 | CUUUGCACGCUGCGGUCCUACAUGAGGAUCACCCAUGUGGUCUGGUGGCGUGGGUCGCCGGACUUGGCUCGUCUUGU [salish99_S_TOV1_R5_041] (Eterna round: R97, puzzle: Sensor, turn-off variant 1) | 18.2 |  | 18.8 |  |  | 
3 | CGGCAACAUGAGGAUCACCCAUGUUAGGAUAUCGGUGGCUGACACGAAACAGGACCGGUGAGAAGGAGUAUGGU [Eternabot (L1) Solution 2] (Eterna round: R97, puzzle: Exclusion 1) | 39 |  | 39.2 |  |  | 
4 | CAUUAACAUGAGGAUCACCCAUGUGAGGAUAUGGAUACAUAAUACUACUACAUAAAUACCAGAAGGCGCAUACU [Maybaline] (puzzle: Exclusion 1) |  |  |  | 31.4 | 28 | 55.1
5 | GCAGUCAAAGUGAGGAUAUCUAGAGCGAUAGCUCUAGAGAAGGCACAUGAGGAUCACCCAUGUGAUCAGACUGC [BmEx4/7-A4'1] (Eterna round: R97, puzzle: Brourd's mod of Exclusion 4) | 605 |  | 257 |  |  | 
6 | CCGAAAAGGAAGGAUAUGCUUGACGAAAGUCAAGCAGAAGGUCCUACAUGAGGAUCACCCAUGUGGUCCUUCGG [Mat - Exclusion 6 - Eli Mod - D36] (Eterna round: R97, puzzle: Exclusion 6) | 629 |  | 450 |  |  | 
7 | CUAGCGGGUGUAGGAUAUCGGACUGUUUCAGUCUGAGAAGGACAUGAGGAUCACCCAUGUAUUGCUGCGUGAGUAGCACGCUAG [JL ENG1 3.98] (Eterna round: R96, puzzle: Exclusion NG 1) | 46.8 | 23.4 | 34.1 |  |  | 
8 | UUUAGUCGUGACAUGGGUGACAUGAGGAUCACCCAUGUCACAAGCUUCUCGCUCGUCUUAUAAUUAACCCAUGUCAC [LRO Sensor-off var1-14 mod of Stov1-13-A1 by Brourd] (Eterna round: R97, puzzle: Sensor, turn-off variant 1) | 18.6 |  | 19.8 |  |  | 
9 | CAGCUGAAAGUCAGGAUAUCUAGAGCGAUAGCUCUAGAGAAGGGACAUGAGGAUCACCCAUGUGGUCACAGCUG [BmEx4/5-A4] (Eterna round: R97, puzzle: Brourd's mod of Exclusion 4) | 169 |  | 648 |  |  | 
10 | GAACUGAGGCAAAGCUUUAGUCGUACAUGAGGAUCACCCAUGUAGGAUAUGGUAGGCAAAGCAUACCAGAAGGACAGAGUGAUC [Mat - Exclusion NG 3 - Mod of JL - D61] (Eterna round: R96, puzzle: Exclusion NG 3) | 877 | 313 | 476 |  |  | 
11 | UUGUUAUAUGUAGGAUAUGCGUAUUAUUAUUAGGCAGAAGGACAUGAGGAUCACCCAUGUAUGUUGUUGUUAUAUAUUAUAUAU [Title] (Eterna round: R96, puzzle: Exclusion NG 1) |  | 20.6 |  |  |  | 
12 | GUGUAGGCAGGAUAUACAUGAGGAUCACCCAUGUGAAUAAGAUAGAAUAAGAUAAAGUGUAGAAGGGUUAGUGU [Excluse me!!! 23 - Jieux - Exclusion 3] (puzzle: Exclusion 3) |  |  |  |  | 31.7 | 
13 | GCUUUUCUUUUCCUUUCUUACAUGAGGAUCACCCAUGUUUCUUGUCGCGCUCGCGUUGCUCGUCUGUCUGUCUGUUG [salish99_TOv1_r3_079] (puzzle: Sensor v3, turn-off variant 1) |  |  |  | 43.1 | 28.9 | 54.7
14 | GUAAACGAUCAGGAUAUAUCAAAUCAUAGCUUGAUAGAAGGGAUCACAUGAGGAUCACCCAUGUGAUCUUCUUA [Mat - Exclusion 6 - JL Mod - D36] (Eterna round: R97, puzzle: Exclusion 6) | 13 |  | 10.9 |  |  | 
15 | CCUGUGACGCAGGAUAUCGAGCACAAUGCAUGUUGAGAAGGGCGUACAUGAGGAUCACCCAUGUCUCACGUAGG [Eternabot (L1) Solution 53] (Eterna round: R97, puzzle: Exclusion 6) | 175 |  | 316 |  |  | 
16 | GCAGGCGACUAGGCUCGUCUUAUUUUGAGAAGAUUGAAAACAUGAGGAUCACCCAUGUUUGUGGGAGAGUUGGAGUG [JR_SV3TOV2_Sub013] (puzzle: Sensor v3, turn-off variant 2) |  |  |  | 59.4 | 73 | 65.3
17 | UGAUCAGACCGAGGAUAUAUAUGGAGGACGCACGUGAGUGCGUCCACUACAUGAGGAUCACCCAUGUAGAAGGCGGUCUGAUCU [JL ENG2 1.98] (Eterna round: R96, puzzle: Exclusion NG 2) | 26.2 | 9.6 | 13.1 |  |  | 
18 | GGUGCGUUUGUGAGGAUAUGCUGGUCCUUGGGUCAGCAGAAGGCACAUGAGGAUCACCCAUGUGGUGUCGUACC [salish99_Bmod_Ex4_032] (puzzle: Brourd's mod of Exclusion 4) |  |  |  |  | 178 | 
19 | AGUAACCGUCACGAAAGUGAUGGUUACACAAGCAAAUGUACAUGAGGAUCACCCAUGUCCUCGUUUGCUCGUCUUAU [Sensor 3 - 49] (puzzle: Sensor v3, turn-off variant 2) |  |  |  | 26.9 | 96.7 | 31.2
20 | AAUGGUAAAGUCAGGAUAUACGUAAAUCGUUCUAGGUAGAAGGGACAUGAGGAUCACCCAUGUAUGAUAGUAAA [Ex4 #32] (Eterna round: R97, puzzle: Brourd's mod of Exclusion 4) | 31.9 |  | 35.4 |  |  | 
21 | UUGCUACCUUGGUACUCUACAAGCUUUUUGCUCGUUUUAACAUGAGGAUCACCCAUGUCUAGUGGAUCUGAUCGGGU [JL ViennaUCT Isreen mod 3] (puzzle: Sensor v3, turn-off variant 2) |  |  |  | 87.4 | 197 | 77.5
22 | GGGCGGCGGACCGUGGCUUUUUGCUCGUCUUGUGCUUCGACAUGAGGAUCACCCAUGUGGUGGUGGUCCGUUGUGGG [Grok-var2-14 mod JAL] (puzzle: Sensor v3, turn-off variant 2) |  |  |  | 18.2 | 12.6 | 14.7
